This note sets out measurements from patent US20150044213A1 (published 2015).

Where “and” joins values, the source holds several entries; their conditions need not be identical. Equal entries are not always repeated.

Test [1] deals with T1, Recombinant human VEGF165 (human, UniProt P15692-4 27-191).
T1 construct: Immobilized on a CM4 sensor chip by amine coupling (about 500 RU)
As to the kind of experiment: SPR (BIAcore T100), VEGF165 amine-coupled on CM4 chip, scFv 2.5-20 nM injected, 1:1 Langmuir model; fresh reference, time 0. On the procedure:
(§1) The affinity of the released ESBA903 monomer toward human VEGF was measured using surface plasmon resonance analysis in comparison to a fresh ESBA903 reference. For evaluation of the binding kinetics, surface plasmon resonance measurements using a BIAcore T100 were performed. Carboxymethylated dextran biosensor chips (CM4, GE HealthCare, Uppsala, Sweden) were activated with N-ethyl-N′-(3-dimethylaminopropyl) carbodiimide hydrochloride and N-hydroxysuccinimide according to the supplier's instructions. Recombinant human VEGF₁₆₅ (PeproTech EC Ltd., London, UK) was immobilized on a CM4 sensor chip using a standard amine-coupling procedure to achieve a response of approximately 500 resonance units. 2-fold serial dilutions (2.5-20 nM) of ESBA903 standard and formulation samples in HBS-EP buffer (10 mM HEPES, 150 mM NaCl, 3 mM EDTA, and 0.05% surfactant P20, pH 7.4) were injected into the flow cells at a flow rate of 30 μL/min for 5 minutes. Dissociation of the anti-VEGF scFv from the VEGF on the CM4 chip was allowed to proceed for 10 minutes. After each injection cycle, surfaces were regenerated with 2 injections of 100 mM NaOH.
(§2) The apparent dissociation (kd) and association (kₐ) rate constants and the apparent dissociation equilibrium constant (KD) were calculated with BIAcore T100 evaluation Software version 2.0.1 using a one-to-one Langmuir binding model (Biacore Inc., Uppsala, Sweden).
In general terms: Surface plasmon resonance follows binding to a sensor surface in real time, without labels.

The target of test [2] is T1, Recombinant human VEGF165. Put plainly: SPR (BIAcore T100), VEGF165 on CM4 chip, 1:1 Langmuir model; scFv released from hexPLA formulation, release sample at 14 w. On the procedure:
as §1, §2

For test [3], the target named is T1, Recombinant human VEGF165. As to the kind of experiment: SPR (BIAcore T100), VEGF165 on CM4 chip, 1:1 Langmuir model; scFv released from hexPLA formulation, release sample at 3 d. On the procedure:
as §1, §2

For test [4], the target named is T1, Recombinant human VEGF165. Put plainly: SPR (BIAcore T100), VEGF165 on CM4 chip, 1:1 Langmuir model; scFv released from hexPLA formulation, release sample at 4 w. As to the method: as §1, §2

T1 sequence (P15692 other isoform, or with tags, fused parts or gaps limits assumed): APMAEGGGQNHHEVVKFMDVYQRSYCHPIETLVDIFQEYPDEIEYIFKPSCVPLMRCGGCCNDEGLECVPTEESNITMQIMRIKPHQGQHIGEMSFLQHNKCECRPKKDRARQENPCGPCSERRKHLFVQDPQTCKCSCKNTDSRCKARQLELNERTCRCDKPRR

B1: ESBA903 (scFv)
scFv: EIVMTQSPSTLSASVGDRVIITCQASEIIHSWLAWYQQKPGKAPKLLIYLASTLASGVPSRFSGSGSGAEFTLTISSLQPDDFATYYCQNVYLASTNGANFGQGTKLTVLGGGGGSGGGGSGGGGSGGGGSEVQLVESGGGLVQPGGSLRLSCTASGFSLTDYYYMTWVRQAPGKGLEWVGFIDPDDDPYYATWAKGRFTISRDTSKNTVYLQMNSLRAEDTAVYYCAGGDHNSGWGLDIWGQGTLVTVSS
notes: Monomeric scFv (about 25 kDa); same protein in all samples; also called humanized antibody-fragment ESBA903; humanized VEGF-antibody fragment ESBA903
The Kd is the equilibrium constant for the complex coming apart. The term koff denotes the rate constant with which the complex falls apart. In general, kon refers to the rate constant with which the complex forms. Consider B1, for which the Kd in test [1] was 0.0256 nM; in test [2], 0.0762 nM and 0.066 nM and 0.0826 nM; in test [3] it was 0.0594 nM and 0.0685 nM and 0.0489 nM; in test [4], 0.0643 nM and 0.0521 nM and 0.0552 nM. Also, the koff is 2.45e-05 s⁻¹ in test [1]; 3.11e-05 s⁻¹ and 2.78e-05 s⁻¹ and 3.37e-05 s⁻¹ in test [2]; 2.77e-05 s⁻¹ and 3e-05 s⁻¹ and 2.59e-05 s⁻¹ in test [3]; 3.56e-05 s⁻¹ and 3.03e-05 s⁻¹ and 2.34e-05 s⁻¹ in test [4]. Besides, the kon in test [1] was 956000 M⁻¹ s⁻¹; in test [2], 407000 M⁻¹ s⁻¹ and 421000 M⁻¹ s⁻¹ and 408000 M⁻¹ s⁻¹; in test [3] it was 465000 M⁻¹ s⁻¹ and 439000 M⁻¹ s⁻¹ and 529000 M⁻¹ s⁻¹; in test [4], 554000 M⁻¹ s⁻¹ and 582000 M⁻¹ s⁻¹ and 424000 M⁻¹ s⁻¹.
